In patent US20040162238A1:
Where two headings read alike, the source gives them in different places.

How the values were obtained:
Experiment in all cases: cell-based or functional assay
[1] = target: Zven1 receptor on Wky12-22 cells (rat)
[2] = target: GPCR73a receptor (Homo sapiens (Human)) (UniProt Q8TCW9)
[3] = target: GPCR73b receptor (Homo sapiens (Human)) (UniProt Q8NFJ6)
[4] = target: GPCR73b receptor (Homo sapiens (Human)) (UniProt Q8NFJ6); remark: listed apart in the source
[5] = target: GPCR73a receptor (Homo sapiens (Human)) (UniProt Q8TCW9); remark: listed apart in the source

GPCR73b receptor (Homo sapiens (Human)), sequence (Q8NFJ6 whole entry): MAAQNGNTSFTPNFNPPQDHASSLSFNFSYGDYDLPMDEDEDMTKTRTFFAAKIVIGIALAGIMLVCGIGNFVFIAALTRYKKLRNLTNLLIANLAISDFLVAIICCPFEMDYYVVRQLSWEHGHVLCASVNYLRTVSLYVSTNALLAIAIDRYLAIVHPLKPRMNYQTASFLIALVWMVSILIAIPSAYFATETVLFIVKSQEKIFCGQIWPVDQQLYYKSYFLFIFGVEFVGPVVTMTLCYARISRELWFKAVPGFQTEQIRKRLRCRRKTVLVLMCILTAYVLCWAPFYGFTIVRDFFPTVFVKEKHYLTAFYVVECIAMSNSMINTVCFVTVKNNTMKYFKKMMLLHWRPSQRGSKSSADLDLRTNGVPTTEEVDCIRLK
GPCR73a receptor (Homo sapiens (Human)), sequence (Q8TCW9 whole entry): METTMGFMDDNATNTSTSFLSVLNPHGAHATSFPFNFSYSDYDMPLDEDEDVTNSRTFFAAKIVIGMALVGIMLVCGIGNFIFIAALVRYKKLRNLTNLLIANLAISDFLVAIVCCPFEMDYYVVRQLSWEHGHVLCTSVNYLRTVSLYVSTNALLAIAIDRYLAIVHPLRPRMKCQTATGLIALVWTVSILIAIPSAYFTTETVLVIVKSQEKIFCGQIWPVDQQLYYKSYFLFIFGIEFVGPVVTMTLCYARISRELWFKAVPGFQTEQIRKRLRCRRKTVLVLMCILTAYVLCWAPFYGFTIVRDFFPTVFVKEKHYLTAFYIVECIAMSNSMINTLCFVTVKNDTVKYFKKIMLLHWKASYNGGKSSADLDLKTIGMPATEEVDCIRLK

B1: Zven1 protein produced in baculovirus with a C-terminal Glu-Glu tag (ligand)
chain: AVITGACDKDSQCGGGMCCAVSIWVKSIRICTPMGKLGDSCHPLTRKVPFFGRRMHHTCPCLPGLACLRTSFNRFICLAQKGLEYMPMD
Binder B1 has an ERK-Map kinase activity EC50 in Wky12-22 cells (Arrayscan) [1] of 0.5 nM, an SRE luciferase fold-induction at 1 ng/ml, Zven1 heated at 56 C for 30 minutes, Rat2 cells with GPCR73a (fold-induction) [2] of 1.8 and an SRE luciferase fold-induction at 1 ng/ml, fresh Zven1, Rat2 cells with GPCR73a (fold-induction) [2] of 2.5. The SRE luciferase fold-induction at 3.2 ng/ml, Zven1 heated at 56 C for 30 minutes, Rat2 cells with GPCR73a (fold-induction) [2] was 3.7, the SRE luciferase fold-induction at 3.2 ng/ml, fresh Zven1, Rat2 cells with GPCR73a (fold-induction) [2] was 7.1 and the SRE luciferase fold-induction at 10 ng/ml, Zven1 heated at 56 C for 30 minutes, Rat2 cells with GPCR73a (fold-induction) [2] was 10. The SRE luciferase fold-induction at 10 ng/ml, fresh Zven1, Rat2 cells with GPCR73a (fold-induction) [2] was 13.1, the SRE luciferase fold-induction at 32 ng/ml, Zven1 heated at 56 C for 30 minutes, Rat2 cells with GPCR73a (fold-induction) [2] was 14.8 and the SRE luciferase fold-induction at 32 ng/ml, fresh Zven1, Rat2 cells with GPCR73a (fold-induction) [2] was 18.7. For the same binder, the SRE luciferase fold-induction at 100 ng/ml, Zven1 heated at 56 C for 30 minutes, Rat2 cells with GPCR73a (fold-induction) [2] was 18.6 and the SRE luciferase fold-induction at 100 ng/ml, fresh Zven1, Rat2 cells with GPCR73a (fold-induction) [2] was 20.5.

B2: Zven2 ("endocrine-gland-derived vascular endothelial growth factor") protein purchased from Peprotech, Inc. (ligand)
chain: AVITGACERDVQCGAGTCCAISLWLRGLRMCTPLGREGEECHPGSHKVPFFRKRKHHTCPCLPNLLCSRFPDGRYRCSMDLKNINF
Binder B2 has an SRE luciferase fold-induction at 1 ng/ml, Rat2 cells with GPCR73b (fold-induction) [3] of 1.1, an SRE luciferase fold-induction at 3.2 ng/ml, Rat2 cells with GPCR73b (fold-induction) [3] of 1.3 and an SRE luciferase fold-induction at 10 ng/ml, Rat2 cells with GPCR73b (fold-induction) [3] of 1.8. For the same binder, the SRE luciferase fold-induction at 32 ng/ml, Rat2 cells with GPCR73b (fold-induction) [3] was 2.8, the SRE luciferase fold-induction at 100 ng/ml, Rat2 cells with GPCR73b (fold-induction) [3] was 5.6 and the SRE luciferase fold-induction at 320 ng/ml, Rat2 cells with GPCR73b (fold-induction) [3] was 8.3. It also gave an SRE luciferase fold-induction at 1000 ng/ml, Rat2 cells with GPCR73b (fold-induction) [3] of 8.4, an SRE luciferase fold-induction at 1 ng/ml, Rat2 cells with GPCR73a (fold-induction) [2] of 1.2 and an SRE luciferase fold-induction at 3.2 ng/ml, Rat2 cells with GPCR73a (fold-induction) [2] of 1.6. For the same binder, the SRE luciferase fold-induction at 10 ng/ml, Rat2 cells with GPCR73a (fold-induction) [2] was 2.5, the SRE luciferase fold-induction at 32 ng/ml, Rat2 cells with GPCR73a (fold-induction) [2] was 5.8 and the SRE luciferase fold-induction at 100 ng/ml, Rat2 cells with GPCR73a (fold-induction) [2] was 11.4. The SRE luciferase fold-induction at 320 ng/ml, Rat2 cells with GPCR73a (fold-induction) [2] was 24.4, the SRE luciferase fold-induction at 1000 ng/ml, Rat2 cells with GPCR73a (fold-induction) [2] was 20 and the SRE luciferase fold-induction at 3.2 ng/ml, Rat2 cells with GPCR73b (fold-induction) [4] was 1.4. The SRE luciferase fold-induction at 32 ng/ml, Rat2 cells with GPCR73b (fold-induction) [4] was 2.7, the SRE luciferase fold-induction at 100 ng/ml, Rat2 cells with GPCR73b (fold-induction) [4] was 4.1 and the SRE luciferase fold-induction at 320 ng/ml, Rat2 cells with GPCR73b (fold-induction) [4] was 5.8. It also gave an SRE luciferase fold-induction at 1000 ng/ml, Rat2 cells with GPCR73b (fold-induction) [4] of 6.1, an SRE luciferase fold-induction at 1 ng/ml, Rat2 cells with GPCR73a (fold-induction) [5] of 0.95 and an SRE luciferase fold-induction at 3.2 ng/ml, Rat2 cells with GPCR73a (fold-induction) [5] of 1.3. It also gave an SRE luciferase fold-induction at 10 ng/ml, Rat2 cells with GPCR73a (fold-induction) [5] of 2.6, an SRE luciferase fold-induction at 32 ng/ml, Rat2 cells with GPCR73a (fold-induction) [5] of 7.2 and an SRE luciferase fold-induction at 320 ng/ml, Rat2 cells with GPCR73a (fold-induction) [5] of 20.5. For the same binder, the SRE luciferase fold-induction at 1000 ng/ml, Rat2 cells with GPCR73a (fold-induction) [5] was 15.
